Our source for the Kd, koff and kon values is patent publication EP2661444B1 (Complix SA, dated 2015).

In test [1] the target is T1, bL4_C36 (HIV-1 gp41 HR2-derived biotinylated peptide C36) (HIV-1 HXB2, N-terminal biotin; C-terminal amide).
T1 construct: also called gp41 C36 target peptide; control peptide C36
T1 peptide: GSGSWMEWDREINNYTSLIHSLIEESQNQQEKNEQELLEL
As to the kind of experiment: ELISA, biotinylated peptide on streptavidin, anti-His-HRP detection, apparent KD.

In test [2] the target is T2, Biotinylated N51 (HIV-1 gp41 HR1-derived peptide, residues 540 to 590 of HIV-1 HXB2) (HIV-1 HXB2, N-terminal biotin).
T2 construct: Immobilised through biotin on streptavidin; also called HIV-1 N51; biotinylated HIV-1 N51
As to the kind of experiment: SPR (BIAcore), biotinylated N51 on streptavidin chip, 1:1 Langmuir fit. For orientation: Surface plasmon resonance follows binding to a sensor surface in real time, without labels.

The target of test [3] is T2, Biotinylated N51 (HIV-1 gp41 …). The test can be described thus: ELISA, biotinylated peptide on streptavidin, anti-His-HRP detection, sigmoid fit, apparent KD. For orientation: An ELISA detects its analyte on a solid surface through an enzyme-linked reagent.
In test [4] the target is T1, bL4_C36 (HIV-1 gp41 HR2-derived …). Described as above.

B1: Alphabody 'scAB013_C2' (designed binder)
chain: MSIEEIQKQIAAIQKQIAAIQKQIYRMTGGSSGGSMQMYTIQIQILIIQAQIQQIQNQIELMTLGGSSGGMSIEEIQKQIAAIQKQIAAIQKQIYRMTPLEHHHHHH
notes: Single-chain Alphabody that mimics gp41 HR2 (grafted B-helix), made in E. coli; also called wild type scAB013_C2
In the case of B1, the Kd in test [1] is more than 10000 nM. In test [2], this molecule displayed a Kd of 2.07 nM, a koff of 0.000209 s⁻¹ and a kon of 101000 M⁻¹ s⁻¹. The Kd in test [3] worked out at 18 nM.

B2: Alphabody 'scAB_Env03' (designed binder)
chain: MGHHHHHHHHHHSSGHIEGRHMSIEEIQKPIATIQEAIAWIQKKIYMMTGGSGGGSGGGSGGGSGMSIEEIQKQIAAIQKQIAAIQKQIYAMTGGSGGGSGGGSGGGSGMSIEEIQKQIVAIMEQIVAIVKQISAMTP
notes: The tag of the construct tested is not described; also called scAB013_Env03
Regarding B2, the Kd in test [4] came to 211 nM.

A word on the koff: it is a measure of how fast the partners let go of each other. The low end stands for a long-lived complex, the high end for a short-lived complex. As a reminder, the kon is the second-order rate constant of association.
